Changes are numbered by the printed parent chain. Names and notes keep the numbering of the source.
What was measured:
Assay in all cases: cell-based or functional assay
[1] = target: T1, human DR3 (full length, on cells) (human, UniProt Q93038 25-417)
T1 sequence: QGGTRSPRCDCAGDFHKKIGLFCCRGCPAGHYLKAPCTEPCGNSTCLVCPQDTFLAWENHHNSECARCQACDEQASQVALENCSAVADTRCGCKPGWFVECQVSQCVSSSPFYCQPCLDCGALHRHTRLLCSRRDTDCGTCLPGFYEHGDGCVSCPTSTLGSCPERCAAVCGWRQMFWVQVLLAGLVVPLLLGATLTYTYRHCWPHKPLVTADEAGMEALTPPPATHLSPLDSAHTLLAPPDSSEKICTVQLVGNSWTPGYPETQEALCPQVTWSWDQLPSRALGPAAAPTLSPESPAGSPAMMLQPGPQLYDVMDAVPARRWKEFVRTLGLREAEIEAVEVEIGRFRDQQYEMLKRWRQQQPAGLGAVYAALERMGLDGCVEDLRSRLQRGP

[2] = target: T2, marmoset DR3 (transiently expressed on HEK293 cells) (marmoset, UniProt U3ENN5 27-418)
T2 sequence: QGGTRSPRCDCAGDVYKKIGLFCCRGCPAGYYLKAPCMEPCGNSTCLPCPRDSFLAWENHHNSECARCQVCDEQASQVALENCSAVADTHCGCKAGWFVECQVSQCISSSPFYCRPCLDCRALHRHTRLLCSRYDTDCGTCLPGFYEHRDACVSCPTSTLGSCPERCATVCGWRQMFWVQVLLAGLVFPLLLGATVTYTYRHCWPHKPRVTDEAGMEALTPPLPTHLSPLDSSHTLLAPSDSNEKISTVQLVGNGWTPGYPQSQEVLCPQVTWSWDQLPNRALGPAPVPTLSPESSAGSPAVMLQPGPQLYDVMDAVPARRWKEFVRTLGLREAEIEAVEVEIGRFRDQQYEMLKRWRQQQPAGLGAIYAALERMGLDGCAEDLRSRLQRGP

[3] = target: T3, cynomolgus DR3 (on HEK293 reporter cells) (cynomolgus, UniProt A0A2K5WJ09 98-464)
T3 sequence: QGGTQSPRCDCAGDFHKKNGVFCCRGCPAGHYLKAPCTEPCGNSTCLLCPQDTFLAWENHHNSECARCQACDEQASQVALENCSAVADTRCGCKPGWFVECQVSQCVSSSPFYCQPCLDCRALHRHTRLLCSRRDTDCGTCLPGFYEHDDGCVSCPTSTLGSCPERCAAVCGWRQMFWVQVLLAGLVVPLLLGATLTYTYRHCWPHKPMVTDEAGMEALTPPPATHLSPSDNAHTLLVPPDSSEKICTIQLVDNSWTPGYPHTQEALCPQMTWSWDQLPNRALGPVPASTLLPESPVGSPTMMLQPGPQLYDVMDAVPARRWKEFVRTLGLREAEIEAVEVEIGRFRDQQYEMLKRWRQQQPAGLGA

[4] = target: T1, human DR3 (full length, on cells); remark: listed apart in the source
human DR3 I43N/L45V = target: T4, human DR3 I43N/L45V (human, UniProt Q93038 25-417)
T4 chain: T1 sequence with I19N, L21V

human DR3 L45V = target: T5, human DR3 L45V (human, UniProt Q93038 25-417)
T5 sequence: T1 sequence with L21V

human DR3 I43N = target: T6, human DR3 I43N (human, UniProt Q93038 25-417)
T6 sequence: T1 sequence with I19N

B1: 0228 (humanized Fab of 27F44, IgG4, hz0072VH S49A / hz0072VL) (Fab, V domains shown)
VH: EVQLVESGGGLVQPGGSLRLSCAASGFTFSNYDMSWVRQATGKGLEWVAAFSSDGYTFYPGSVKGRFTISRENAKNSLYLQMNSLRAGDTAVYYCARHADYANYPVMDYWGQGTLVTVSS
VL: DIQMTQSPSSLSASVGDRVTITCRASKSVSTSGYSYMHWYQQKPGKAPKLLIYLASNLESGVPSRFSGSGSGTDFTLTISSLQPEDFATYYCQHSRELPLTFGGGTKVEIKR
notes: IgG4-Cys, hz (humanized IgG4 Fab with the hinge cysteine kept)
- IC50 at 40 ng/ml TL1A, transient reporter HEK293 [1]: 355 pM
- IC50 at 40 ng/ml TL1A, transient reporter HEK293 [2]: 549 pM
- IC50 at 40 ng/ml TL1A, transient reporter HEK293 [3]: 73 nM
- IC50 of Fab upon stimulation by TL1A, transient reporter [4]: 645 pM
- IC50 of Fab upon stimulation by TL1A, transient reporter (human DR3 I43N/L45V): 149 nM
- IC50 of Fab upon stimulation by TL1A, transient reporter (human DR3 L45V): 2 nM
- IC50 of Fab upon stimulation by TL1A, transient reporter (human DR3 I43N): 68 nM

Reference: patent publication US20170305994A1 (Novo Nordisk, published 2017)
